Where a chain is given by its changes, count along the chain named.
T1: B7-H7 (UniProt Q9UM44 23-344)
T1 construct: not shown: His tag
T1 sequence (looked up): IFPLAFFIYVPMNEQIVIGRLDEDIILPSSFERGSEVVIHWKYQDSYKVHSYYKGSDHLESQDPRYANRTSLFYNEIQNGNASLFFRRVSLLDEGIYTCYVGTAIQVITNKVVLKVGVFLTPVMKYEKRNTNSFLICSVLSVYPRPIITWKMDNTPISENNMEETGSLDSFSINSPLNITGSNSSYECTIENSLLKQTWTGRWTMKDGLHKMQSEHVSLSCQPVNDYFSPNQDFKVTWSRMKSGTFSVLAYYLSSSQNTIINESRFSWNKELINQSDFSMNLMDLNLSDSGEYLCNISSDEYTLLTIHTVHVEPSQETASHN

T2: PD-L2 (UniProt Q9BQ51 20-219)
T2 construct: not shown: His tag
T2 sequence (looked up): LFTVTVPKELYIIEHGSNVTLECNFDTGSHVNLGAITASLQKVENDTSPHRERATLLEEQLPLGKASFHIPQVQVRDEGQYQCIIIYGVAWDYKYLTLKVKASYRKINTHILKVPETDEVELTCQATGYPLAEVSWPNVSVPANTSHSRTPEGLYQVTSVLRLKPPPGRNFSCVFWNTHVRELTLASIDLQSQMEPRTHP

T3: B7-1 (UniProt P33681 35-242)
T3 construct: not shown: His tag
T3 sequence (looked up): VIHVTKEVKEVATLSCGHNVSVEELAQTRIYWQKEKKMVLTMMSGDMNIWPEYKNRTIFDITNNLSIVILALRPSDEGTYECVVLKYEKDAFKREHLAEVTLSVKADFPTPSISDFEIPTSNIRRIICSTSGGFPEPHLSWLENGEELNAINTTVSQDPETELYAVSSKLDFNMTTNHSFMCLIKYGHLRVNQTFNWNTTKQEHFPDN

T4: B7-H4 (UniProt Q7Z7D3 29-258, limits assumed)
T4 construct: not shown: His tag
T4 sequence (looked up): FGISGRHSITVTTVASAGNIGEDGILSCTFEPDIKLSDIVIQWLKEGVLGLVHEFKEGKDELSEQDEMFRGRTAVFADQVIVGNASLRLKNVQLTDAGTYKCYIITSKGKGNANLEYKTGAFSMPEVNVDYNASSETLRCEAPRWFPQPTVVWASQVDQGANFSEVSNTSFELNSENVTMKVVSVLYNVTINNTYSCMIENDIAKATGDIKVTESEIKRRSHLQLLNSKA

T5: B7-H6 (UniProt Q68D85 25-262)
T5 construct: not shown: His tag
T5 sequence (looked up): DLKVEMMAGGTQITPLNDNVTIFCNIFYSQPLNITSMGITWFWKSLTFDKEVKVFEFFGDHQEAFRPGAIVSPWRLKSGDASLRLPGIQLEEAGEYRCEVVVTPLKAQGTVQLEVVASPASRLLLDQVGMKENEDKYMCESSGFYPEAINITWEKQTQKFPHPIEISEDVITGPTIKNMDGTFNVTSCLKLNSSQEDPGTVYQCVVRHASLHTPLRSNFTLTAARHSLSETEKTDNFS

T6: B7-H5 (UniProt Q9H7M9 33-194)
T6 construct: The name B7-H5 is ambiguous in the literature; not shown: His tag
T6 sequence (looked up): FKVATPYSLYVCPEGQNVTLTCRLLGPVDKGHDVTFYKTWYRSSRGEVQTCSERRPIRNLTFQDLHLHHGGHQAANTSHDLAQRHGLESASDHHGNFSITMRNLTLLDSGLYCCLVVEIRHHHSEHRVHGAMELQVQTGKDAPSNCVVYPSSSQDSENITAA

T7: B7-H2 (UniProt O75144 19-258, limits assumed)
T7 construct: not shown: His tag
T7 sequence (looked up): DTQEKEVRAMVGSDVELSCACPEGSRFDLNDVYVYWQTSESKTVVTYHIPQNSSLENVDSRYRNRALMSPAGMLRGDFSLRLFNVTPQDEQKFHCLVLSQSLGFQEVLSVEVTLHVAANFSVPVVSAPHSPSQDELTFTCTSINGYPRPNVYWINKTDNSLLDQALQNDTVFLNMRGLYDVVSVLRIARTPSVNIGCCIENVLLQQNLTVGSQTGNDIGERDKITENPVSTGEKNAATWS

T8: B7-2 (UniProt P42081 26-247, limits assumed)
T8 construct: not shown: His tag
T8 sequence (looked up): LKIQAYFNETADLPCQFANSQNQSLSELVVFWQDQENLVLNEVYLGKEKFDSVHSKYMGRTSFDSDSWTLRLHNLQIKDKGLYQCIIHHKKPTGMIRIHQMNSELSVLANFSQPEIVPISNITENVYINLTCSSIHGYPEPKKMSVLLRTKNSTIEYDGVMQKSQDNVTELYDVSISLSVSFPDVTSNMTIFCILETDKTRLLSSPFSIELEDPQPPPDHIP

T9: B7-H3 on NCI-H446 cells (UniProt Q5ZPR3 29-534)
T9 construct: whole, on cells
T9 sequence (looked up): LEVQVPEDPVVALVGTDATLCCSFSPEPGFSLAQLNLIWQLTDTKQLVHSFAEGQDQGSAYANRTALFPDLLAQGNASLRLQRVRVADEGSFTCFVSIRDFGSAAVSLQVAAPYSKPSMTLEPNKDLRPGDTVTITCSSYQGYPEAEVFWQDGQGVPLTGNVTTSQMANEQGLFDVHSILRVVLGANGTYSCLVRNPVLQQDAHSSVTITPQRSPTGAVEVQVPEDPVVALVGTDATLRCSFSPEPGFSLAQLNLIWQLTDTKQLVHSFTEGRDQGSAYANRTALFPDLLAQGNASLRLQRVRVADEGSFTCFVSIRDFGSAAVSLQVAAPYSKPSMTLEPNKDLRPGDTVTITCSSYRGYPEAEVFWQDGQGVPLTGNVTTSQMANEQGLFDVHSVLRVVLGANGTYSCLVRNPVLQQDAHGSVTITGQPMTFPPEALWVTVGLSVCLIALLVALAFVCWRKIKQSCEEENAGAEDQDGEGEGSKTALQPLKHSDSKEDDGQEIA

B1: cAb1-z3-p7 (antibody, human IgG1, kappa, V domains shown)
VH: EVQLVESGGGLVKPGGSLRLSCAASGFTFSSYGMSWVRQAPGKRLEWVSSISGSGSYTYYPDSLKGRFTISRDNAKNSLYLQMNSLRAEDTAVYYCARQQGYWYFDVWGQGTTVTVSS
VL: DVVMTQTPLSLPVTPGEPASISCRASQSLASSYGKTYLSWYLQKPGQSPQLLIYGISNRFSGVPDRFSGSGSGTDFTLKISRVEAEDVGVYYCLHGTHQPLTFGQGTKLEIKR
notes: Humanized from 48-B4-F4-E4; Human IgG1 / kappa; also called cAbl-z3-p7
B2: cAb1-z0-p7 (antibody, human IgG1, kappa, V domains shown)
VH: B1 VH with R44G
VL: B1 VL with V2I
notes: Humanized from 48-B4-F4-E4; Human IgG1 / kappa
B3: cAb1-z5-p7 (antibody, human IgG1, kappa, V domains shown)
VH: B1 VH with S49A
VL: B1 VL
notes: Humanized from 48-B4-F4-E4; Human IgG1 / kappa; also called cAbl-z5-p7

These binders were tested against T1, B7-H7 (assay: ELISA, His-tagged antigen coated at 1 µg/mL, HRP-Protein A detection).

Binder	binding result
B1	no binding (tested: starting concentration 10 µg/ml)
B2	no binding (tested: starting concentration 10 µg/ml)
B3	no binding (tested: starting concentration 10 µg/ml)

These binders were tested against T2, PD-L2 in the same assay as above.

Binder	binding result
B1	no binding (tested: starting concentration 10 µg/ml)
B2	no binding (tested: starting concentration 10 µg/ml)
B3	no binding (tested: starting concentration 10 µg/ml)

The binders below were run against T3, B7-1 in the same assay as above.

Binder	binding result
B1	no binding (tested: starting concentration 10 µg/ml)
B2	no binding (tested: starting concentration 10 µg/ml)
B3	no binding (tested: starting concentration 10 µg/ml)

These binders were tested against T4, B7-H4 in the same assay as above.

Binder	binding result
B1	no binding (tested: starting concentration 10 µg/ml)
B2	no binding (tested: starting concentration 10 µg/ml)
B3	no binding (tested: starting concentration 10 µg/ml)

The binders below were run against T10, hB7-H1 (PD-L1) (human, UniProt Q9NZQ7 19-238) in the same assay as above.
T10 construct: Species read from the printed prefix h; not shown: His tag
T10 sequence (Q9NZQ7 19-238 limits assumed): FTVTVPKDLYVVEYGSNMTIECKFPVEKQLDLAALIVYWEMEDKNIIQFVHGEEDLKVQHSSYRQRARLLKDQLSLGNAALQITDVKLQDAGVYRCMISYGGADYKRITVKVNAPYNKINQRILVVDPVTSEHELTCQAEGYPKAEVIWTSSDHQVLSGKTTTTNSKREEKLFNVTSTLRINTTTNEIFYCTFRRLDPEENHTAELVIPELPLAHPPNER

Binder	binding result
B1	no binding (tested: starting concentration 10 µg/ml)
B2	no binding (tested: starting concentration 10 µg/ml)
B3	no binding (tested: starting concentration 10 µg/ml)

Each binder was assayed against T5, B7-H6 in the same assay as above.

Binder	binding result
B1	no binding (tested: starting concentration 10 µg/ml)
B2	no binding (tested: starting concentration 10 µg/ml)
B3	no binding (tested: starting concentration 10 µg/ml)

These binders were tested against T6, B7-H5 in the same assay as above.

Binder	binding result
B1	no binding (tested: starting concentration 10 µg/ml)
B2	no binding (tested: starting concentration 10 µg/ml)
B3	no binding (tested: starting concentration 10 µg/ml)

What follows are binders tested against T7, B7-H2 in the same assay as above.

Binder	binding result
B1	no binding (tested: starting concentration 10 µg/ml)
B2	no binding (tested: starting concentration 10 µg/ml)
B3	no binding (tested: starting concentration 10 µg/ml)

These binders were tested against T8, B7-2 in the same assay as above.

Binder	binding result
B1	no binding (tested: starting concentration 10 µg/ml)
B2	no binding (tested: starting concentration 10 µg/ml)
B3	no binding (tested: starting concentration 10 µg/ml)

These binders were tested against T9, B7-H3 on NCI-H446 cells (assay: flow cytometry on NCI-H446 cells, goat anti-human Fc secondary).

Binder	EC50
B1	4.66 nM
B2	9.7 nM
B3	3.69 nM

Each binder was assayed against T11, B7-H3 Cyno-His (cynomolgus monkey) (assay: SPR, Biacore 8K, antibody captured by anti-human IgG Fc on CM5, B7-H3 Cyno-His as analyte, 1:1 model).
T11 construct: also called cynomolgus monkey B7-H3

Binder	Kd	koff	kon
B1	3.87 nM	5.82e-05 s⁻¹	15100 M⁻¹ s⁻¹
B2	7.86 nM	7.68e-05 s⁻¹	9770 M⁻¹ s⁻¹
B3	3.9 nM	6.17e-05 s⁻¹	15800 M⁻¹ s⁻¹

Source: EP4763862A1 (Beijing Tide Pharmaceutical Co., Ltd., dated 2026)
